Here are results for 9 molecules from patent US20220162261A1 (published 2022).

Experiment [1] concerns the target human α4β1 integrin on cells (human) (UniProt P13612). The experiment is described as follows: Jurkat cell adhesion to VCAM-1.
For experiment [2], the target named is human α4β7 integrin on cells (human) (UniProt P13612). The experiment in a line: FACS, human whole blood, CD4 memory T cells.
Experiment [3] has the same target. The experiment is described as follows: FACS, human whole blood, Basophils.
The target is the same in experiment [4]. The experiment in a line: FACS, human whole blood, Eosinophils.
The target is the same in experiment [5]. The experiment in a line: FACS, human whole blood, Monocytes.
The target in experiment [6] is soluble α4β7 integrin (UniProt P13612). The experiment in a line: SPR, binder on streptavidin chip, soluble α4β7. In general terms: SPR reads the build-up and loss of mass on a sensor chip optically.
For experiment [7], the target named is human α4β7 integrin on cells (human) (UniProt P13612). The experiment in a line: FACS, human whole blood, CD8 naïve T cells. On the technique in general: A flow cytometer gives signals particle by particle.
Experiment [8] has the same target. The experiment in a line: FACS, human whole blood, CD8 memory T cells.
The target is the same in experiment [9]. The experiment is described as follows: FACS, human whole blood, CD4 naïve T cells.
The target is the same in experiment [10]. The experiment in a line: FACS, human whole blood, Neutrophils.
Experiment [11] shares this target. The experiment in a line: FACS, human whole blood, CD19+ B cells.
The target is the same in experiment [12]. The experiment in a line: FACS, human whole blood, NK cells CD16+ 56+.
The target of experiment [13] is T1, α4β1 (R&D Systems #5668-A4) (UniProt P13612 34-970; P05556 21-728, limits assumed).
T1 construct: bought; also called soluble α4β1
The experiment in a line: competition ELISA vs VCAM-1. (In an ELISA, binding on a coated surface is turned into a signal by an enzyme label.)

The target in experiment [14] is T2, human α4β7 integrin on cells (human, UniProt P13612 34-1032; P26010 20-798).
T2 construct: whole, on cells; also called α4β7 cell (Hu); RPMI8866 cells
The experiment is described as follows: RPMI8866 cell adhesion to MAdCAM-1.

Experiment [15] has as its target T3, rh integrin α4β7 (R&D Systems #5397-A30) (human, UniProt P13612 34-970; P26010 20-723).
T3 construct: bought; coated on a nickel coated plate; also called immobilized α4β7; immobilized α4β7 integrin protein
The experiment in a line: competition ELISA vs MAdCAM-1.

Experiment [16] deals with T4, human α4β1 integrin on cells (human, UniProt P13612 34-1032; P05556 21-798).
T4 construct: whole, on cells; also called α4β1 cell; Jurkat cells
The experiment is described as follows: Jurkat cell adhesion to VCAM-1.

Experiment [17] has as its target T5, mouse α4β7 integrin on TK1 cells (mouse, UniProt Q00651 41-1039; P26011 20-806).
T5 construct: whole, on cells; also called α4β7 cell (Mu); Cell Adhesion α4β7 Mouse
The experiment is described as follows: TK1 cell adhesion to MAdCAM-1.

The target in experiment [18] is T2, human α4β7 integrin on cells. The experiment in a line: PBMC memory T cell adhesion.
The target in experiment [19] is T6, soluble α4β7 integrin (UniProt P13612 34-970; P26010 20-723, limits assumed).
T6 construct: analyte of the SPR experiment
The experiment in a line: SPR, binder on streptavidin chip, soluble α4β7.

Experiment [20] has as its target T5, mouse α4β7 integrin on TK1 cells. The experiment in a line: TK1 cell adhesion to MAdCAM-1; acetate salt.
Experiment [21] has as its target T2, human α4β7 integrin on cells. The experiment in a line: PBMC memory T cell adhesion; acetate salt.
Experiment [22] has as its target T3, rh integrin α4β7 (R&D Systems #5397-A30). The experiment is described as follows: competition ELISA vs MAdCAM-1; acetate salt.
In experiment [23] the target is T1, α4β1 (R&D Systems #5668-A4). The experiment in a line: competition ELISA vs VCAM-1; acetate salt.
Experiment [24] concerns the target T2, human α4β7 integrin on cells. The experiment is described as follows: RPMI8866 cell adhesion to MAdCAM-1; acetate salt.
Experiment [25] concerns the target mouse α4β7 integrin on TK1 cells (mouse) (UniProt Q00651). The experiment in a line: TK1 cell adhesion to MAdCAM-1.
In experiment [26] the target is α4β1 (R&D Systems #5668-A4) (UniProt P13612). The experiment is described as follows: competition ELISA vs VCAM-1.
The target in experiment [27] is human α4β7 integrin on cells (human) (UniProt P13612). The experiment is described as follows: RPMI8866 cell adhesion to MAdCAM-1.
Experiment [28] concerns the target rh integrin α4β7 (R&D Systems #5397-A30) (human) (UniProt P13612). The experiment in a line: competition ELISA vs MAdCAM-1.
The target in experiment [29] is human α4β7 integrin on cells (human) (UniProt P13612). The experiment in a line: PBMC memory T cell adhesion.

Bridge positions count the residues as written; N and C are the ends. Square brackets hold non-standard residues; d marks the D form. Phe(4-tBu) = CC(C)(C)c1ccc(C[C@H](N)C(=O)O)cc1; 2Nal = N[C@@H](Cc1ccc2ccccc2c1)C(=O)O; NMeR = CN[C@@H](CCCNC(=N)N)C(=O)O; β3hE = N[C@@H](CCC(=O)O)CC(=O)O; Pen = CC(C)(S)[C@H](N)C(=O)O A value given as a limit tells only on which side of the number the result lay.

One may read the IC50 as the midpoint of a concentration-inhibition curve. Usually Kd stands for the concentration at which binding is half-saturated. Low readings indicate a tighter complex, high ones a looser complex. By koff is commonly meant the first-order rate constant of dissociation. High values mean fast dissociation, low ones slow dissociation. What is called kon is a measure of how fast the partners come together. Low values mean slow association, high ones fast association.

T5 sequence (Q00651 41-1039, chain 1 of 2): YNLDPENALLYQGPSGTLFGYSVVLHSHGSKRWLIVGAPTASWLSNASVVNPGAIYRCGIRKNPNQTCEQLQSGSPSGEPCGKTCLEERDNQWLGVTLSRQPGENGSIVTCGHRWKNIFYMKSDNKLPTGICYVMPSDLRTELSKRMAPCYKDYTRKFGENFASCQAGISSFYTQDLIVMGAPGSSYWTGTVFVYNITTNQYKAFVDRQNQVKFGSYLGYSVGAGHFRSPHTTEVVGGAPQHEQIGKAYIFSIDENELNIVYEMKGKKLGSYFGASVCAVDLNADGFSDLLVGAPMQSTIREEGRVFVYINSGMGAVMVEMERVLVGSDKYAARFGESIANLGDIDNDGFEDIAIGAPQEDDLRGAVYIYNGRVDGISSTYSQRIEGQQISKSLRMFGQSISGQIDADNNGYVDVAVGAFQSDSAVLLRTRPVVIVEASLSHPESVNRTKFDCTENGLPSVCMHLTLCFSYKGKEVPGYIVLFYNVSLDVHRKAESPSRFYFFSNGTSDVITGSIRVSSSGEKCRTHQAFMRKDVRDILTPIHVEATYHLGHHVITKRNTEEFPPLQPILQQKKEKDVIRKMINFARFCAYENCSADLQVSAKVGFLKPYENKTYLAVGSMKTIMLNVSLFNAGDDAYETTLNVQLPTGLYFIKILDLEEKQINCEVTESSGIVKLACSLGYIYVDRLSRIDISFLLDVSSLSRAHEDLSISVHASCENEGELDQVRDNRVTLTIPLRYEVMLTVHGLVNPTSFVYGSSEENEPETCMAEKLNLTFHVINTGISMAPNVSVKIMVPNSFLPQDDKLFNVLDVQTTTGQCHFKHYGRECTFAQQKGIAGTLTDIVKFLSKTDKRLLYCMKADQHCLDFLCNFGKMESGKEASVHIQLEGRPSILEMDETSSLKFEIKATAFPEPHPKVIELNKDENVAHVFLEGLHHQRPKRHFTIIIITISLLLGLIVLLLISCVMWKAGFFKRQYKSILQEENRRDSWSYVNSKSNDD
T5 sequence (P26011 20-806, chain 2 of 2): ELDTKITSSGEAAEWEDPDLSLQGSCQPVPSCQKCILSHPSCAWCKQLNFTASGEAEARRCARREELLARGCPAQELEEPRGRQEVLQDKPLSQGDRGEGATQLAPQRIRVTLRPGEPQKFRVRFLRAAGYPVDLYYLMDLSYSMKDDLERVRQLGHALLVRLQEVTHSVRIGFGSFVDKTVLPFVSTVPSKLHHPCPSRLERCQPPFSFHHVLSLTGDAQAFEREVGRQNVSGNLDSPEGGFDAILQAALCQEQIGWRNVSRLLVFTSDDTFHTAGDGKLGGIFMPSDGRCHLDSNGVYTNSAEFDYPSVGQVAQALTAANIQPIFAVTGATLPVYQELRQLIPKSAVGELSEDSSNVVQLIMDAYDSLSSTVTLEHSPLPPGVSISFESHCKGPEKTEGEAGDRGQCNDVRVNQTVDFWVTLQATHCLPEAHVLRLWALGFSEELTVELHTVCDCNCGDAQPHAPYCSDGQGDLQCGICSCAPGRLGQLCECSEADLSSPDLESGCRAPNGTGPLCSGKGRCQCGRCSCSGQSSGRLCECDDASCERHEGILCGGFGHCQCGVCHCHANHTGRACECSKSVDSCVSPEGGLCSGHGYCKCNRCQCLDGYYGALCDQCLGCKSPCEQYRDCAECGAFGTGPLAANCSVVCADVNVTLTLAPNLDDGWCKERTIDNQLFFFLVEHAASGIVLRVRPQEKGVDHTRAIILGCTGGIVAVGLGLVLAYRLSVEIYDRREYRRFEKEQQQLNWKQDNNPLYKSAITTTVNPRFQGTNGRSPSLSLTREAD
Chain of mouse α4β7 integrin on TK1 cells (mouse) (Q00651 41-1039, chain 1 of 2): as the sequence (Q00651 41-1039, chain 1 of 2) above
Chain of mouse α4β7 integrin on TK1 cells (mouse) (P26011 20-806, chain 2 of 2, further chain): as the sequence (P26011 20-806, chain 2 of 2) above

B1: SEQ ID NO: 33 (peptide)
peptide: Ac-[Pen][NMeR]SDTL[Pen][2Nal][dE][dK]-NH2
modifications: disulfide 1-7; also: dimer (…)2 DIG, attachment not given here
Consider B1, for which the IC50 in experiment [1] was above 100000 nM.

B2: biotin-labeled vedolizumab antibody (antibody, INN chains, looked up, V domains shown)
VH: QVQLVQSGAEVKKPGASVKVSCKGSGYTFTSYWMHWVRQAPGQRLEWIGEIDPSESNTNYNQKFKGRVTLTVDISASTAYMELSSLRSEDTAVYYCARGGYDGWDYAIDYWGQGTLVTVSS
VL: DVVMTQSPLSLPVTPGEPASISCRSSQSLAKSYGNTYLSWYLQKPGQSPQLLIYGISNRFSGVPDRFSGSGSGTDFTLKISRVEAEDVGVYYCLQGTHQPYTFGQGTKVEIKR
modifications: biotin label
Turning to B2, the Percent positive staining was determined as 22% in experiment [2]; 86% in [3]; 91% in experiment [4]; 7% in experiment [5]; 53% in experiment [7]; 36% in [8]. In addition, the Percent positive staining turned out to be 55% in [9], 0.45% in experiment [10], 85% in experiment [11] and 42% in [12]. In the experiment with soluble α4β7 integrin [6], the Half-life for dissociation came out at 0.717 h. Also, the dissociation constant (Kd) with soluble α4β7 integrin [6] is 59.5 nM. The koff with soluble α4β7 integrin [6] is 0.000266 s⁻¹. The same molecule yielded a kon with soluble α4β7 integrin [6] of 4470 M⁻¹ s⁻¹.

B3: SEQ ID NO: 68 (peptide)
peptide: Ac-[Pen][NMeR]SDTL[Pen]W[dE][dK]-NH2
modifications: disulfide 1-7; not fully specified (residue 10); printed as (Ac Pen N-Me-R S D T L Pen W e k NH2)2 DIG, disulfide Pen-Pen; also: homodimer via DIG linker
On to B3, for which the IC50 is above 500 nM in experiment [13]; above 25 nM in [14]; at most 10 nM in experiment [15]; above 100000 nM in experiment [16]; at most 10 nM in experiment [17]; above 100 nM in [18].

B4: Peptide Z-biotin (peptide)
peptide: Ac-[Pen][NMeR]SDTL[Pen]WE[dK]-NH2
modifications: disulfide 1-7; not fully specified (residue 10); printed as (Ac-Pen-(N-Me-Arg)-S-D-T-L-Pen-W-E-k-NH2)2-DIG; also: homodimer: two subunits joined by DIG linker, biotin label, attachment not given here
For B4, in the experiment with soluble α4β7 integrin [19], the Half-life for dissociation amounted to 3.53 h, the Kd worked out at 52.1 nM and the off-rate (koff) was determined as 5.46e-05 s⁻¹.

B5: SEQ ID NO: 78 (peptide)
peptide: Ac-[Pen][NMeR]SDTL[Pen]WE[dK]-OH
modifications: disulfide 1-7; not fully specified (residue 10); printed as (Ac Pen N-Me-R S D T L Pen W E k OH)2 DIG, disulfide Pen-Pen; also: homodimer: two subunits linked by DIG via D-Lys10 side chain
Take B5: the concentration for half-maximal inhibition (IC50) in experiment [13] was above 100 nM; in experiment [14], at most 10 nM; in [15], at most 10 nM; in experiment [16], above 100000 nM; in experiment [17] it was at most 10 nM.

B6: SEQ ID NO: 67 (peptide)
peptide: Ac-[Pen][NMeR]SDTL[Pen]WE[dK]-NH2
modifications: disulfide 1-7; not fully specified (residue 10); printed as (Ac Pen N-Me-R S D T L Pen W E k NH2)2 DIG, disulfide Pen-Pen; also: homodimer via DIG linker
notes: also called Peptide Z
Take B6: the half-inhibitory concentration (IC50) in [13] is above 100 nM; in experiment [14] it was at most 10 nM; in [15] it was at most 10 nM; in [16] it was above 100000 nM; in [17], at most 10 nM.

B7: SEQ ID NO: 132 (peptide)
peptide: Ac-[Pen][NMeR]SDTL[Pen][Phe(4-tBu)][β3hE][dK]-NH2
modifications: disulfide 1-7; not fully specified (residue 10); printed as (Ac Pen N-Me-R S D T L Pen F(4tBu) b-H-E k NH2)2 DIG, disulfide Pen-Pen; also: homodimer, two subunits joined by DIG linker
notes: the second listing is the acetate salt
As for B7, the IC50 was at most 10 nM in experiment [14]; at most 10 nM in [15]; above 100000 nM in experiment [16]; at most 10 nM in [20]; at most 10 nM in [17]; at most 10 nM in experiment [18]. In addition, the IC50 was at most 10 nM in [21], at most 10 nM in [22], above 500 nM in experiment [23] and at most 10 nM in experiment [24].

B8: SEQ ID NO: 212 (peptide)
peptide: Ac-[Pen][NMeR]SDTL[Pen][2Nal]E[dK]-NH2
modifications: disulfide 1-7; also: dimer (…)2 DIG, attachment not given here
Take B8: the IC50 in experiment [25] is 2.5 nM; in experiment [26], 70 nM; in [27], 2.5 nM; in experiment [28], 2 nM; in experiment [1], above 100000 nM.

B9: SEQ ID NO: 210 (peptide)
peptide: Ac-[Pen][NMeR]SDTL[Pen][2Nal]E[dK]-NH2
modifications: disulfide 1-7
SMILES: CC(=O)N[C@@H]1C(=O)N(C)[C@@H](CCCNC(=N)N)C(=O)N[C@@H](CO)C(=O)N[C@@H](CC(=O)O)C(=O)N[C@@H]([C@@H](C)O)C(=O)N[C@@H](CC(C)C)C(=O)N[C@H](C(=O)N[C@@H](Cc2ccc3ccccc3c2)C(=O)N[C@@H](CCC(=O)O)C(=O)N[C@H](CCCCN)C(N)=O)C(C)(C)SSC1(C)C
As to B9, the IC50 in [29] was 517 nM; in [25] it was 60 nM; in experiment [26] it was 200 nM; in experiment [27], 40 nM; in [28], 11 nM; in experiment [1], above 100000 nM.
